According to IntAct's records for PubMed 23142979:

Biological target: DAXX, Q9UER7-1
Sequence (Q9UER7 whole entry): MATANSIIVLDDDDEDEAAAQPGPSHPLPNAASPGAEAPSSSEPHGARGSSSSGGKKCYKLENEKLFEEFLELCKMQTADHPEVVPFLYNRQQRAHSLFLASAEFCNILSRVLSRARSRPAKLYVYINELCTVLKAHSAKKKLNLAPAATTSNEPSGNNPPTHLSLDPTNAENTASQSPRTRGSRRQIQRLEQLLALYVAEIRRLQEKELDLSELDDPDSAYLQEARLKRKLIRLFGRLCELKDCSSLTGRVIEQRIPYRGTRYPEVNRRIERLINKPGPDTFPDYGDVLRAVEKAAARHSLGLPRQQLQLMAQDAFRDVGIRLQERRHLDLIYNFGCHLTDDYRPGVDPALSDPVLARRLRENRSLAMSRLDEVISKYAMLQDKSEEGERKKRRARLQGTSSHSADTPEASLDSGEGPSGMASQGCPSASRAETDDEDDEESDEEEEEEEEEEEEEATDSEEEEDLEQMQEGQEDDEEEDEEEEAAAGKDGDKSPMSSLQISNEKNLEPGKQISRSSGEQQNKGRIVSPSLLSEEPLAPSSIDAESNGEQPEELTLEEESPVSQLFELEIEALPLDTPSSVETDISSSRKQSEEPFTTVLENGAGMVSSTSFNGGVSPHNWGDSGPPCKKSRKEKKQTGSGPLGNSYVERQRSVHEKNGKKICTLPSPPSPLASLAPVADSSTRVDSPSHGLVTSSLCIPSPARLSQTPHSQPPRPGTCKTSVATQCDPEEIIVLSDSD

For “Histone H3.1 (Homo sapiens) (from UniProt P68431) S88A”, the “effect of a mutation on the interaction” value was “increasing interaction strength”.
